Assays:
[1] = target: PP1183, putative phosphopantetheinyl transferase of Pseudomonas putida KT2440 (Pseudomonas putida KT2440); test: cell-based or functional assay
[2] = target: PcpS, phosphopantetheinyl transferase of Pseudomonas aeruginosa PAO1 (Pseudomonas aeruginosa PAO1); test: cell-based or functional assay
[3] = target: Sfp, phosphopantetheinyl transferase of Bacillus subtilis subsp. spizizenii ATCC6633 (Bacillus subtilis subsp. spizizenii ATCC6633); test: cell-based or functional assay
[4] = system: BpsA, single module non-ribosomal peptide synthetase of Streptomyces lavendulae ATCC 11924, purified recombinant 6His-tagged protein (apo form)
[5] = system: E. coli harbouring an activating PPTase; test: In vivo pigment synthesis activity of BpsA derivatives relative to wild type BpsA; type: cell-based; conditions: for Relative activity (in vivo pigment synthesis relative to wild type BpsA): E. coli, supernatant A590
Text: A detailed description of the method used for generation of mBpsA derivatives is given in Section 4.15. Briefly, a plasmid containing bpsA lacking its native T-domain (pBPSA3) was created. This plasmid contained restriction enzyme sites which were subsequently used to introduce foreign T-domain sequence. Foreign T-domains were then amplified from the chromosomal DNA of their host organisms and introduced into pBPSA3 to generate mBpsA derivatives which contained T-domains from foreign NRPS proteins in place of the native T-domain. Only the final embodiment of the T-domain swapping platform is described in this application. This embodiment is the result of rational in-silico design as well as trial and error, which are not described. Using this final platform, five different mBpsA derivatives were generated and subsequently assessed for in vivo pigment synthesis capacity in E. coli harbouring an activating PPTase. Table 3.1 gives a summary of the mBpsA derivatives generated as well as their in vivo pigment synthesis activities relative to wild type BpsA. The derivation of in vivo pigment synthesis activity was as described in 4.10.
For second tier screening, up to 45 improved clones, along with a positive and negative control, were stored as duplicate glycerol stocks in a 96wp. From this plate duplicate overnight cultures were established in LB supplemented with 0.4% glucose and appropriate antibiotics. […] Overnight cultures were grown for 16-20 h (37° C. 200 rpm) before transfer of 20 μl of each culture into a fresh well containing 130 μL LB supplemented with 115 mM L-Gln, 0.6 mM IPTG and appropriate antibiotics. Assay plates set up in this fashion contained duplicate cultures for each clone from two separate overnights. Assay plates were then wrapped in foil and incubated for 6-24 h (18° C., 200 rpm), depending on activity of improved clones. After incubation cells were collected at the corner of each well by centrifugation and OD 590 values determined using a microplate reader. Assays were repeated at least twice before determination of clones for sequence analysis.
In vivo pigment synthesis efficiencies for recombinant BpsA proteins described in Section 3.2 were derived from three separate assays. This was necessary due to the fact that pigment synthesis of wild type BpsA saturate before activity of mBpsA derivatives was detectable. Replicate cultures for determination of in vivo pigment synthesis activity were established from overnight starter cultures in a 96 wp as described in Section 4.9.3 The values presented are derived as follows: quadruplicate values for WT BpsA and oBpsA (mutant with reduced activity) were determined after 3 h, at which point pigment production was not saturated for WT. A separate quadruplicate assay was then run to obtain a value for slEntF by comparison to oBpsA after 12 h. Quadruplicate values for slPsT and slPvdD2 were then obtained in a separate assay by comparison to slEntF after 12 h.

The aryl carrier protein from Nostoc punctiforme protein HetM (npArCP), purified recombinant His6 tagged
IC50 (carrier protein competition with BpsA for limiting CoA) [1]: 6000 nM | kcat/Km (estimate derived from IC50) (Min^-1 · µM^-1) [1]: 0.19 | IC50 (carrier protein competition with BpsA for limiting CoA) [2]: 8460 nM | kcat/Km (estimate derived from IC50) (Min^-1 · µM^-1) [2]: 0.65 | IC50 (carrier protein competition with BpsA for limiting CoA) [3]: 140 nM | kcat/Km (estimate derived from IC50) (Min^-1 · µM^-1) [3]: 3.51

The peptide carrier protein of the first module of the Pseudomonas aeruginosa NRPS PvdD (pPCP), puri
IC50 (carrier protein competition with BpsA for limiting CoA) [1]: 280 nM | kcat/Km (estimate derived from IC50) (Min^-1 · µM^-1) [1]: 4.1 | IC50 (carrier protein competition with BpsA for limiting CoA) [2]: 560 nM | kcat/Km (estimate derived from IC50) (Min^-1 · µM^-1) [2]: 9.84 | IC50 (carrier protein competition with BpsA for limiting CoA) [3]: 450 nM | kcat/Km (estimate derived from IC50) (Min^-1 · µM^-1) [3]: 1.11

The peptide carrier protein of the Microcysitis aeruginosa NRPS/PKS MycG (mPCP), purified recombinant His6 tagged
IC50 (carrier protein competition with BpsA for limiting CoA) [1]: 180 nM | kcat/Km (estimate derived from IC50) (Min^-1 · µM^-1) [1]: 6.3 | IC50 (carrier protein competition with BpsA for limiting CoA) [2]: 990 nM | kcat/Km (estimate derived from IC50) (Min^-1 · µM^-1) [2]: 5.55 | IC50 (carrier protein competition with BpsA for limiting CoA) [3]: 150 nM | kcat/Km (estimate derived from IC50) (Min^-1 · µM^-1) [3]: 3.33

PcpS, phosphopantetheinyl transferase of Pseudomonas aeruginosa PAO1
Km (BpsA as variable substrate), BpsA coupled indigoidine assay [4]: 6.5 µM | kcat (BpsA as variable substrate), BpsA coupled indigoidine assay [4]: 0.687 s⁻¹ | kcat/Km (BpsA as variable substrate), BpsA coupled indigoidine assay [4]: 107000 M⁻¹ s⁻¹

slDhbF: mBpsA with T-domain from first module of dhbF of B. subtilis; SEQ ID NO: 13
Relative activity (in vivo pigment synthesis relative to wild type BpsA) [5]: 0%

B1: slPvdD1: mBpsA with T-domain from first module of pvdD of P. aeruginosa PAO1; SEQ ID NO: 5 (protein)
chain: MTLQETSVLEPTLQGTTTLPGLLAQRVAEHPEAIAVAYRDDKLTFRELASRSAALADYLEHLGVSADDCVGLFVEPSIDLMVGAWGILNAGAAYLPLSPEYPEDRLRYMIENSETKIILAQQRLVSRLRELAPKDVTIVTLRESEAFVRPEGTEAPAARSARPDTLAYVIYTSGSTGKPKGVMIEHRSIVNQLGWLRETYAIDRSKVILQKTPMSFDAAQWEILSPANGATVVMGAPGVYADPEGLIETIVKHNVTTLQCVPTLLQGLIDTEKFPECVSLQQIFSGGEALSRLLAIQTTQEMPGRALINVYGPTETTINSSSFPVDPADLDEGPQSISIGSPVHGTTYHILDKETLKPVGVGEIGELYIGGIQLARGYLHRDDLTAERFLEIELEEGAEPVRLYKTGDLGQWNNDGTVQFAGRADNQVKLRGYRVELDEISLAIENHDWVRNAAVIVKNDGRTGFQNLIACIELSEKEAALMDQGNHGSHHASKKSKLQVKAQLSNPGLRDDAELAARPAFDLEGAEPTPEQRARVFARKTYRFYEGGAVTQADLLGLLGATVTAGYSRKAADLAPAELGQILRWFGQYISEERLLPKYGYASPGALYATQMYFELEGVGGLKPGYYYYQPVRHQLVLISEREATGKATAQIHFIGKKSGIEPVYKNNILEVLEIETGHMVGLFEQILPAYGLDIHDRAYEPAVKDLLDVADEDYYLGTFELVPHAGARDDQAEVYVQTHGGKVAGLPEGQYRYENGELTRFSDDIVLKKHVIAINQSVYQAASFGISVYSRAEEEWLKYITLGKKLQHLMMNGLNLGFMSSGYSSKTGNPLPASRRMDAVLGANGVDSAPMYFFVGGRISDEQIGHEGMREDSVHMRGPAELIRDDLVSFLPDYMIPNRVVVFDRLPLSANGKIDVKALAASDQVNAELVERPYRAPGSELEQRIAAIWSEILGVERVGLDDNFFELGGHSLLATRVISRVRQEQQLDASLKALFERPVLEAFAQGLEREVAQESSRFVRLHAETGKARPVICWPGLGGYPMNLRSLAGEIGLGRSFYGVQSYGINEGETPYETITEMAKKDIEALKEIQPAGPYTLWGYSFGARVAFETAYQLEQAGEKVDNLFLIAPGSPKVRAENGKVWGREASFANRGYTTILFSVFTGTISGPDLDRCLETVTDEASFAEFISELKGIDVDLARRIISVVGQTYEFEYSFHELAERTLQAPISIFKAVGDDYSFLENSSGYSAEPPTVIDLDADHYSLLREDIGELVKHIRYLLGE
In vivo pigment synthesis capacity (qualitative) ([5]; E. coli with activating PPTase, pigment development agar or broth): completely inactive enzyme | Relative activity (in vivo pigment synthesis relative to wild type BpsA) [5]: 0%

From patent US20130260436A1, “Methods of Identifying and Characterizing Natural Product Gene Clusters” (Victoria LInk Limited, priority 2010, published 2013)
